Test results reported in patent US20100004429A1.

Biological target: human thrombopoietin receptor (human c-Mpl) (human) (UniProt P40238)
Test: cell-based or functional assay

- UT7/TPO (Max): 100%
Substance: PEG-rHuMGDF (pegylated recombinant human megakaryocyte proliferation and development factor) (from UniProt P40225 22-184) (ligand)
